These results are taken from patent US20240101959A1, “USE OF IL-2R-BETA-GAMMA AGONIST PEPTIDES IN CELL MANUFACTURING” (MEDIKINE, INC., priority 2022, published 2024).

What is called IC50 is the concentration needed to halve the response being measured. A higher IC50 goes with weaker potency.

No end group written: not given here.

T1: hu-IL-2Rβ subunit (human, UniProt P14784 27-240, limits assumed)
T1 construct: also called human interleukin-2 receptor subunit β; CD122
T1 sequence (looked up): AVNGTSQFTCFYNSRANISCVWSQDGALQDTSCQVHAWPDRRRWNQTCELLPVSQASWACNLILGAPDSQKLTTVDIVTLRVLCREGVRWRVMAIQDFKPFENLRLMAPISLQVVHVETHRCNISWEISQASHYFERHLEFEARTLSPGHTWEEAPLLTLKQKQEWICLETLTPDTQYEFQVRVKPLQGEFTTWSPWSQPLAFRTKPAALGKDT

In the assay the target is T1, hu-IL-2Rβ subunit. The assay can be described thus: phage ELISA competition assay.
Regarding SYLCWLDHWGVICEED (not fully specified (bridges); cysteine pairing not given here) [SEQ ID NO 546], the half-maximal inhibitory concentration (IC50) is under 100 µM.

SMDQDCYFAQVGELCVLFNQ [SEQ ID NO 519]: the IC50 was under 100 µM.

Molecule EFFHDCYVARVGELCDLFGW [SEQ ID NO 545] showed an IC50 of under 100 µM.

QWFHNCFLARVGDTCDLFLW [SEQ ID NO 526] gave an IC50 of under 100 µM.

Take YPCWMAQLGELCDL [SEQ ID NO 621]: the IC50 was under 10 µM.

Turning to NWFHDCFLARVGDLCDLFLD [SEQ ID NO 543], the IC50 was under 100 µM.

WTCWLTQLGYDCNLDVVDQSLG [SEQ ID NO 550] returned an IC50 of under 100 µM.

The molecule KWVHDCFLAKVGDVCDLFVV [SEQ ID NO 529] had an IC50 of under 100 µM.

In turn, WYPCWGELCDLD [SEQ ID NO 560] yielded an IC50 of under 100 µM.

For GGYYDCLIAEVGELCDIYGR [SEQ ID NO 520], the IC50 was under 100 µM.

Regarding RSLVDCFLVKVGDLCDFFNW [SEQ ID NO 530], the IC50 was under 100 µM.

DGSWYTCWFTQLGEWCEQDDAK [SEQ ID NO 551] returned an IC50 of under 100 µM.

Take VHDCFIAQVGDLCDLF [SEQ ID NO 556]: the IC50 was under 100 µM.

With LVDCFKVKVGELCDLF (not fully specified (bridges); cysteine pairing not given here) [SEQ ID NO 555], the IC50 is under 100 µM.

SWLSDLQDCYIAQVGDLCQI [SEQ ID NO 523] registered an IC50 of under 100 µM.

QMVWWDCWSTQEGPVCELNWTA [SEQ ID NO 548]: the IC50 is under 100 µM.

Consider WPCWALGELCDLD [SEQ ID NO 558], for which the IC50 was under 100 µM.

In the case of YWCSVWQLGSVCEMNNEETQ [SEQ ID NO 549], the IC50 is under 100 µM.

QDRRSPWYPCWMAKLGELCDLA [SEQ ID NO 114] showed an IC50 of under 100 µM.

In the case of ELLVDCFKVKVGELCDLFFG [SEQ ID NO 527], the IC50 was under 100 µM.

Turning to WPCWLGELCDLD [SEQ ID NO 559], the IC50 is under 100 µM.

Consider EFWGWQCWQEPLGWSCDLEWMD [SEQ ID NO 552], for which the IC50 was under 100 µM.

With WYPCWVAQLGEICDLEMTGPDSWYP [SEQ ID NO 117], the IC50 was under 100 µM.

In turn, WYTCMMDWLGVHCELE [SEQ ID NO 547] showed an IC50 of under 100 µM.

As to DWLPDCYFANVGDLCSLFGS [SEQ ID NO 539], the IC50 was under 100 µM.

Take WYPCYRARLGELCDLD [SEQ ID NO 82]: the IC50 is under 100 µM.

With YPCHMAQLGELCDLWSWGDI (not fully specified (bridges); cysteine pairing not given here) [SEQ ID NO 620], the IC50 was under 10 µM.

WAFYDCRNAQVGDFCDLWEF [SEQ ID NO 518] gave an IC50 of under 100 µM.

In the case of NRRWYPCWMAQLGELCDLDSRP [SEQ ID NO 119], the IC50 is under 100 µM.

For RYLYDCFLALVGDLCVKFHQ [SEQ ID NO 531], the IC50 was under 100 µM.

For the molecule VSRYDCYIAKVGELCDFFEF [SEQ ID NO 515], the IC50 is under 100 µM.

As for SEQWWPCWIARLGELCDLDRELSE [SEQ ID NO 116], the IC50 is under 100 µM.

RLASDWWDCYIAKVGELCDF (not fully specified (bridges); cysteine pairing not given here) [SEQ ID NO 524]: the half-inhibitory concentration (IC50) was under 100 µM.

For the molecule AHFYDCFWAKAGELCDLWPS [SEQ ID NO 532], the IC50 was under 100 µM.

WEWYDCLMAQVGELCDFEGN [SEQ ID NO 517] had an IC50 of under 100 µM.

EHFHDCFFAKVGDLCDIFGN [SEQ ID NO 571] displayed an IC50 of under 100 µM.

The molecule EHFHDCFFAKVGDLCDKFGQ [SEQ ID NO 572] yielded an IC50 of under 100 µM.

As to EGFHDCFFAKVGDLCDIFGH [SEQ ID NO 570], the IC50 was under 100 µM.

WPCWAALGELCDLD [SEQ ID NO 557]: the IC50 is under 100 µM.

HWVRDCFLAKVGELCDLFLW [SEQ ID NO 536] returned an IC50 of under 100 µM.

YSFKDCYFAKVGELCELFLW [SEQ ID NO 544] returned an IC50 of under 100 µM.

In turn, THVHDCFLAKVGDLCDLFIV [SEQ ID NO 535] came in with an IC50 of under 100 µM.

For the molecule SNWHDCLFAQVGELCDLPGS (not fully specified (bridges); cysteine pairing not given here) [SEQ ID NO 521], the IC50 is under 100 µM.

The molecule AFFHDCFFAKAGDLCDFFDD [SEQ ID NO 568] had an IC50 of under 100 µM.

Take HGILDCYFAKVGELCELFDW [SEQ ID NO 537]: the concentration for half-maximal inhibition (IC50) was under 100 µM.

On to EIFKDCLFANVGELCEIFPS [SEQ ID NO 542], for which the IC50 is under 100 µM.

For HIFHDCFIAKVGDLCDLFHS [SEQ ID NO 573], the IC50 was under 100 µM.

In turn, QDGWLPCWMAQLGELCDLEYKR [SEQ ID NO 118] returned a half-maximal inhibitory concentration (IC50) of under 100 µM.

Regarding DFFHDCFFAKVGDLCDFFFG [SEQ ID NO 569], the IC50 is under 100 µM.

In the case of QFVKDCFLAQVGDLCELFLW [SEQ ID NO 538], the IC50 was under 100 µM.

Turning to TRRWYPCYLAKLGELCDLFEGGTR [SEQ ID NO 115], the half-inhibitory concentration (IC50) is under 100 µM.

Consider NWLPDCLFANVGELCDIFPW [SEQ ID NO 541], for which the half-maximal inhibitory concentration (IC50) is under 100 µM.

Consider WGKLVRDCFLAKVGDLCDLFLW [SEQ ID NO 534], for which the IC50 was under 100 µM.

VQYKKCWMAQLGDLCELDPS (not fully specified (bridges); cysteine pairing not given here) [SEQ ID NO 619] had an IC50 of under 10 µM.

Turning to HWFLDCFLANVGDLCDFFGN [SEQ ID NO 540], the IC50 is under 100 µM.

With VTVQDCYFARVGDLCDLFSP [SEQ ID NO 516], the half-maximal inhibitory concentration (IC50) was under 100 µM.

RYVHDCFIAQVGDLCDLFLH [SEQ ID NO 528] displayed an IC50 of under 100 µM.

With RLLRDCFLAKVGDLCELFVW [SEQ ID NO 525], the IC50 is under 100 µM.

In turn, YDCYIAQVGELCDI [SEQ ID NO 522] gave an IC50 of under 100 µM.
